Residue numbers refer to the chain shown, from its start. Names may count otherwise.

This note sets out measurements from patent US20250304670A1 (AstraZeneca / MedImmune, published 2025).

Test [1] has as its target T1, Biotinylated Human Amyloid Beta 1-40 peptide (human, N-terminal biotin).
T1 construct: synthetic
Briefly: HTRF direct binding: dilution series of purified His-tagged Fab with biotinylated human Amyloid beta 1-40 peptide, streptavidin cryptate and anti-6his-XL665 (sections 1.3, 1.4). The method, then: (§1) Selection outputs were screened as unpurified bacterial periplasmic extracts containing sFab, prepared in 50 mM MOPS buffer pH 7.4, 0.5 mM EDTA and 0.5 M sucrose. Ten microlitres of unpurified sFab samples were added to a Costar® 384 well assay plate (Corning, USA; cat: 3676). This was followed by the addition of 5 μl of 20 nM synthetic human Amyloid beta 1-42 and 5 μl of a combined solution of 6 nM streptavidin cryptate and 20 nM anti-his-XL665. Non-specific binding wells (negative controls) were defined for each plate by using a negative control unpurified sFab in place of the test sFab sample. Cross-reactive sFab clones were identified using a concurrent assay with human Amyloid beta 1-40 peptide. […] Assay plates were incubated for 4 hours at room temperature prior to reading time resolved fluorescence on an EnVision plate reader (PerkinElmer, USA) using an excitation wavelength of 320 nm and measuring the emission at 620 nm and 665 nm (100 flashes).
(§2) The sFab with unique protein sequences were expressed in E. coli and purified by affinity chromatography (essentially as described (Bannister et al., 2006)). The Amyloid beta binding profile of each purified sFab was determined by testing a dilution series of the purified sFab in the HTRF™ assay described in section 1.3, substituting the unpurified sFab periplasmic preparation with the purified sFab.
On the technique in general: In TR-FRET formats the signal depends on donor and acceptor labels being close together.

Test [2] concerns the target T2, Biotinylated Human Amyloid Beta 1-42 peptide (human, N-terminal biotin).
T2 construct: synthetic (rPeptide A1117 or Bachem H-5642); also called N-terminal biotin Abeta 1-42; synthetic biotinylated human Amyloid beta 1-42 peptide
The test is described as follows: HTRF direct binding: dilution series of purified His-tagged Fab with biotinylated human Amyloid beta 1-42 peptide, streptavidin cryptate and anti-6his-XL665 (sections 1.3, 1.4). The method, then: as §1, §2

The target in test [3] is T3, Biotinylated Murine Amyloid Beta 1-42 peptide (murine, not fully specified; N-terminal biotin).
T3 construct: Anaspec 61718-01
T3 peptide: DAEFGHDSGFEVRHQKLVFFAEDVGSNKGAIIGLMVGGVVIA
Briefly: direct binding HTRF, purified sFab and biotinylated peptide.

Test [4] concerns the target T4, Biotinylated Scrambled Amyloid Beta 1-42 peptide (N-terminal biotin).
T4 construct: Anaspec custom synthesis; control peptide; also called scrambled human Amyloid beta 1-42 peptide; biotinylated scrambled human Amyloid beta 1-42
T4 peptide: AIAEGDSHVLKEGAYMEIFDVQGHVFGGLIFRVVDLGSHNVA
Briefly: direct binding HTRF, purified sFab and scrambled peptide.

The target in test [5] is T5, Human Amyloid Beta 1-42 peptide (human).
T5 construct: synthetic, unlabelled; also used here for the endogenous peptide of human plasma in the depletion assay; also called unlabelled human Amyloid beta 1-42; synthetic human Amyloid beta 1-42 peptide
Briefly: SPR (BIAcore T-100), peptide over amine-coupled IgG, 1:1 Langmuir fit. The method, then:
The affinity of binding between each test IgG and human Amyloid beta 1-42 was estimated using assays in which the antibody was covalently coupled by amine linkage to a proprietary CM3 chip surface to a final surface density of approximately 2,000 RU. The chip surface was regenerated between cycles by a single 40 second injection of 10 mM Glycine pH 2.0 to remove ligand bound to the antibody.
Blank reference flow-cell data were subtracted from each IgG dataset and a zero-concentration buffer blank was double-reference subtracted from the main dataset to reduce the impact of any buffer artefacts or non-specific binding effects. An appropriate binding model was then fitted simultaneously to the data from each analyte titration using the BIAevaluation software.
On the technique in general: In SPR one partner is held on a chip, and binding of the other changes the refractive index at the surface.

The target of test [6] is T6, Human Amyloid Beta 1-16 truncated peptide (human).
T6 construct: synthetic, unlabelled; also called Abeta 1-16
T6 peptide: DAEFRHDSGYEVHHQK
The test is described as follows: TR-FRET peptide competition against biotinylated human Amyloid beta 1-42. The method, then: (§3) This involved the use of Europium cryptate labelled anti-human Fc IgG (CisBio International, France; cat: 61 HFCKLB) and XL665 labelled streptavidin (CisBio International, France; cat: 611SAXLB) TR-FRET detection reagents.
(§4) Experiments were set up in Costar 384 well shallow bottom microtitre plates. […] 5 μl of assay buffer only was added to the negative binding assay control wells. […] 5 μl per well of each test peptide serial dilution was then transferred onto the 384 well assay plate. 5 μl of assay buffer only was added to the total and negative binding assay control wells. […] Finally, a combined solution was prepared containing Europium cryptate labelled anti-human Fc (2.4 nM) and XL665 labelled streptavidin (60 nM). 5 μl per well of this solution was added to all wells of the 384 well assay plate such that the final concentrations of Europium cryptate labelled anti-human Fc and XL665 labelled streptavidin were 0.6 nM and 15 nM, respectively.

The target of test [7] is T7, human Amyloid beta pyro 3-42 peptide (human, pyroglutamate at residue 3 (the N-terminal residue)).
T7 construct: the pyro form (Anaspec 29907) has no entry of its own; also called Abeta pyro-3-42; Abeta Pyro-3-42
The description is as above. The method, then: as §3, §4

Test [8] addresses T8, Human Amyloid Beta 1-40 peptide (human).
T8 construct: synthetic, unlabelled; also called unlabelled human Amyloid beta 1-40
Briefly: TR-FRET peptide competition: dilution series of unlabelled peptide against 1.5 nM biotinylated human Amyloid beta 1-42 peptide for 0.28 nM Abet0144-GL IgG1-TM (section 2.10). The method, then:
as §3, §4

Test [9] has as its target T4, Biotinylated Scrambled Amyloid Beta …. The test is described as follows: SPR (BIAcore T-100), antibody amine-coupled to a CM3 chip, peptide analyte at 400 nM (section 2.9). The method, then:
(§5) The affinity of binding between each test IgG and each peptide was estimated using assays in which the antibody was covalently coupled by amine-linkage to a proprietary CM3 chip surface to a final surface density of approximately 2,000 RU. The chip surface was regenerated between cycles by a single 40 second injection of 10 mM Glycine pH 2.0 to remove ligand bound to the antibody.
(§6) Blank reference flow-cell data were subtracted from each IgG dataset and a zero-concentration buffer blank was double-reference subtracted from the main dataset to reduce the impact of any buffer artefacts or non-specific binding effects.

Test [10] addresses T1, Biotinylated Human Amyloid Beta 1-40 …. The test is described as above. The method, then:
as §5, §6

For test [11], the target named is T9, Amyloid beta plaques on Tg2576 mouse brain sections (human (transgene in Tg2576 mice), UniProt P05067 672-713).
T9 construct: mixture of Amyloid beta species in tissue; also called Tg2576 brain sections; Amyloid beta plaques in aged Tg2576 mice
The test is described as follows: in vitro immunohistochemistry, core plaques.

For test [12], the target named is T10, Amyloid beta plaques on human Alzheimer's Disease brain sections (human, UniProt P05067 672-713).
T10 construct: mixture of Amyloid beta species in tissue; also called native Amyloid beta; human AD brain sections
The test is described as follows: in vitro immunohistochemistry, core plaques.

T1 sequence (peptide, as listed by the source): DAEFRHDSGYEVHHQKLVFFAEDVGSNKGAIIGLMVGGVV
T8 sequence (peptide, as listed by the source): as above

B1: Abet0007 sFab (Fab, V domains shown)
VH: EVQLLESGGGLVQPGGSLRLSCAASGFTFSVYTMWWVRQAPGKGLEWVSVIGSSGGTTVYADSVKGRFTISRDNSKNTLYLQMNSLRAEDTAVYYCAREGQQLVRPYYYYGMDVWGQGTLVTVSS
VL: QSVLTQPPSVSVSPGQTASITCSGHNLEDKFASWYQQKSGQSPVLVIYRDDKRPSGIPERFSASNSGHTATLTISGTQATDEADYYCQAQDSTTRVFGGGTKLTVL
notes: soluble single chain Fab fragment (sFab) from the Dyax Fab310-Lambda library, histidine tagged, purified from E. coli; also called Abet0007 Fab; purified Abet0007 Fab
B1: the binding result in test [1] is “no binding (tested: 1e-7 M (Log M -7))”; in test [3], “binds”; in [4] it was “no binding”. Further, in test [2], the “EC50 (read off the curve)” value was approximately 6 nM.

B2: Abet0144-GL IgG1-TM (antibody, V domains shown)
VH: B1 VH with G100W, Q101M, Q102D, L103H, V104S
VL: B1 VL with Q1S, S2Y, V3E, S39P, T80M
notes: human IgG1 with the triple mutation L234F/L235E/P331S (TM), human lambda light chain; also called Abet0144-GL (germlined) IgG1-TM
As to B2, the Kd in test [5] was 9.5 nM. Further, the koff in [5] came out at 0.00197 s⁻¹. The kon in test [5] came out at 208000 M⁻¹ s⁻¹. Besides, the binding result in [6] is “no binding (tested: 10 uM)”; in test [7], “binds”; in test [8] it was “no binding (tested: 1e-5 M (logM -5))”; in test [9] it was “no binding (tested: 400 nM)”; in [10], “no binding (tested: 400 nM)”. For the same molecule, the entries for the “plaque staining score (0-4)” value in test [11] and in test [12] were 1 and 1.5, respectively.

What is called EC50 (read off the curve) is the concentration needed to bring the measured effect to its halfway point. A low value points to a more potent agent. In general, Kd refers to the concentration at which binding is half-saturated. The low end stands for tighter binding, the high end for weaker binding. What is called koff is a measure of how fast the partners let go of each other. For orientation: kon means the rate constant with which the complex forms. The low end stands for slow association, the high end for fast association.
